T1: human LAG3 chimera (extracellular domain of human LAG3 and trans-membrane/cytoplasmic domain of human CD300a) … (human, UniProt P18627 23-450; Q9UGN4 181-299, limits assumed)
T1 sequence (looked up): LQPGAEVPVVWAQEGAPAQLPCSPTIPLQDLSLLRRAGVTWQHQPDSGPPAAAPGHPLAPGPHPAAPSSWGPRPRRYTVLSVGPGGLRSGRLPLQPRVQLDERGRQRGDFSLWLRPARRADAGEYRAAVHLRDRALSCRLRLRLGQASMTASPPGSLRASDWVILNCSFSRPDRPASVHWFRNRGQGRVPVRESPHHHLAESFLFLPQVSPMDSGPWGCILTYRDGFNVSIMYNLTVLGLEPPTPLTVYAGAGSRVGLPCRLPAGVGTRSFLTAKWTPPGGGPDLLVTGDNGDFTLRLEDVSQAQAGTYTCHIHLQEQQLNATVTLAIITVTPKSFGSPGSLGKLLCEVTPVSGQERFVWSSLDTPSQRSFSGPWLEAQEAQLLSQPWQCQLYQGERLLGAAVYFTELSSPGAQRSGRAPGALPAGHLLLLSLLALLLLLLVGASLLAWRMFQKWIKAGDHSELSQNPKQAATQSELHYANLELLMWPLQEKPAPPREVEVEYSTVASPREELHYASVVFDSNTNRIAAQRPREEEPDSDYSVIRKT

T2: human LAG3 expressed on HEK293 cells (human, UniProt P18627 23-525)
T2 construct: also called hLAG3; HEK293/hLAG3
T2 sequence: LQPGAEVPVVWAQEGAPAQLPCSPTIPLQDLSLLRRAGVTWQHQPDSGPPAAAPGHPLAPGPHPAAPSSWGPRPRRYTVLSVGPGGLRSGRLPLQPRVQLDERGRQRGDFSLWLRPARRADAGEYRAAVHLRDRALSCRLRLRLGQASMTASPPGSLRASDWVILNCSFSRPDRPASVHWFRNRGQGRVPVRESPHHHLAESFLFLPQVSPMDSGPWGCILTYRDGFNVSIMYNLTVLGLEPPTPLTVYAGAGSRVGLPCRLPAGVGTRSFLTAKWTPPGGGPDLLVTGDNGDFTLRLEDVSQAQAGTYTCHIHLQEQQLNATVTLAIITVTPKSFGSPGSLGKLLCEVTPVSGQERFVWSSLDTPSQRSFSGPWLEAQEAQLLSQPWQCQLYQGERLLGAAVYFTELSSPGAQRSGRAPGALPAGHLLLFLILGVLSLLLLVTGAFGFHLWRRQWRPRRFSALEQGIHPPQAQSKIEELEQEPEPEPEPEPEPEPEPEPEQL


Tests used:
[1] = target: T1, human LAG3 chimera (extracellular …); assay: cell-based or functional assay
[2] = target: T2, human LAG3 expressed on HEK293 cells; assay: electrochemiluminescence cell binding
Description: (§1) To investigate the ability of a panel of anti-LAG3 monoclonal antibodies to bind cell-surface expressed LAG3, an in vitro binding assay utilizing human and monkey LAG3 expressing cell lines in an electrochemiluminescence based detection platform [Meso Scale Diagnostics, Rockville, Md.—(MSD)] was developed.
(§2) Experiments were carried out according to following procedure. Cells from the three cell lines described above were rinsed once in 1×PBS buffer without Ca²⁺/Mg²⁺ followed by 10-minute incubation at 37° C. with Enzyme Free Cell Dissociation Solution. […] Approximately 10,000 cells per well in the cell-washing buffer were seeded into the 96-well carbon electrode plates (MULTI-ARRAY high bind plate, MSD) and incubated for 1 hour at 37° C. to allow the cells to adhere. Nonspecific binding sites were blocked by 2% BSA (w/v) in PBS for 1 hour at room temperature. […] The plates were then washed to remove the unbound antibodies using an AquaMax2000 plate washer (MDS Analytical Technologies). The plate-bound antibodies were detected with a SULFO-TAG™-conjugated anti-human IgG antibody (MSD) for 1 hour at room temperature. After washes, the plates were developed with the Read Buffer (MSD) according to manufacturer's recommended procedure and the luminescent signals were recorded with a SECTOR Imager 6000 (MSD) instrument. The direct binding signals (in relative light units—RLU) were analyzed as a function of the antibody concentration and the data were fitted with a sigmoidal (four-parameter logistic) dose-response model using Graph Pad Prism™ software. The potency of each antibody was determined by calculating EC₅₀.

[3] = target: T2, human LAG3 expressed on HEK293 cells; assay: electrochemiluminescence cell binding, HEK293-hLAG3
Description: as §1, §2

[4] = target: T2, human LAG3 expressed on HEK293 cells; assay: cell adherence assay, blocks A20 (mouse MHCII) cells on HEK293-hLAG3
Description: (§3) Cells were plated into sterile Nunclon™ Delta 96-Well MicroWell™ Black Optical Bottom Plates (Thermo Scientific). The wells from the perimeter of the plate were not included in the assay design to avoid edge effects.
(§4) On the day of treatment, all antibodies were serially (1:3) diluted in RPMI media (without FBS or supplements added). The 9-point dilution ranged between 45 pM to 300 nM, with the last dilution point containing no mAb. […] While the plated HEK293-LAG3 cells were incubating with the test or control antibodies, non-adherent B-cells (RAJI or A20) were labeled with Calcein AM using the following procedure. RAJI and A20 suspension cells were harvested and centrifuged at 1,200 rpm for 5 minutes. Cell pellets were resuspended in 1×PBS and counted. Cells were washed with RPMI, and resuspended in RPMI at a concentration of 10⁶ cells per 1 ml. Cells were labeled by adding 5 μL of Calcein AM per 1 ml of cell suspension and incubated for 30 min at 37° C., at 5% CO₂. […] Subsequently, 10 μL of BD Pharmingen Fc Block (0.5 mg/mL) was added per 1 ml of the Calcein AM labeled cells, which were incubated at RT for 10 minutes. The Calcein AM-stained, Fc-blocked RAJI or A20 cells were resuspended in RPMI to a final concentration of 3×10⁶ cells per 1 ml and subsequently used in the adherence assay.
(§5) The labeled suspension cells were incubated with the HEK293 monolayer for 1 hour at 37° C., at 5% CO₂.

[5] = target: T2, human LAG3 expressed on HEK293 cells; assay: cell adherence assay, blocks RAJI (human MHCII) cells on HEK293-hLAG3
Description: as §3, §4, §5

| EC50, AP1-Luc signaling, bispecific mode [1] [nM] | EC50, AP1-Luc signaling, peptide mode [1] [nM] | Ratio of 100 nM antibody binding HEK293-hLAG3 to HEK293 cells [2] | EC50 [3] [nM] | IC50 [4] [nM] | IC50 [5] [nM] | Binder |
| --- | --- | --- | --- | --- | --- | --- |
| 266 | 8.83 | 7 | 3.48 | 10 | 27 | H4H17826P2 (antibody, human IgG4, V domains shown, H4H = human IgG4 Fc with S108P hinge mutation) VH: EVQLVESGGGLVQPGGSLRLSCAASGFTFSSYEMNWVRQAPGKGLEWVSYISSSGNTKDYAGSVKGRVTISRDNAKNLLYLQMNSLRAEDTAVYHCARDGGHYDILTGSMSYYYYALDVWGQGTTVTVSS VL: not shown |
| > 100 | 0.688 | 5.3 | 1.5 | 9.4 | 8.6 | H4H17823P (antibody, human IgG4, V domains shown, H4H = human IgG4 Fc with S108P hinge mutation) VH: EVQLLESGGGLVQPGGSLRLSCAASGFTFRSYAMSWVRQAPGKGLEWVSVISGGGGRTYYTDSVKGRFTISRDNSKSMLYLQMNSLRAEDTAIYYCAKERVTGIDHYYYGVDVWGQGTTVTVSS VL: DIQMTQSPSSLSASVGDRVTITCRASQSISSYLNWYQQKPGKAPKLLIYATSSLQSGVPSRFSGSASGTDFTLAISSLQPEDFATYYCQQSYTTPLTFGGGTKVEIK |
| > 100 | 4.91 | 8.7 | 1.2 | 16 | 11 | H4H17828P2 (antibody, human IgG4, V domains shown, H4H = human IgG4 Fc with S108P hinge mutation) VH: EVQLVESGGGLVQPGGSLRLSCAASGFTFKTYAMSWVRQAPGRGLEWVSGISGSGSTSYYADSVKGRFTISRDNYKKTLSLQMNSLRAEDTAVYYCALDIMATVGGLFNNWGQGTLVTVSS VL: not shown |
| 0.0872 | 0.135 | 17.8 | 13.4 | 6.3 | 9.6 | H4sH15479P (antibody, V domains shown) VH: QVQLQQWGAGLLNPSETLSLTCAVYGGAFSDYYWNWIRQPPGKGLEWIGEINHRGSTNYNPSLKSRVTISVDTSKNQFSLRMSSVTAADAAVYYCARGEDYDIWNGYYQEKWGQGTLVTVSS VL: EIVLTQSPATLSLSPGERATLSCRASQSISTYLAWYQQKPGQAPRLLIYDASKRATGIPARFSGSGSGTDFTLTISSLEPEDFVVYYCHQRSNWPLTFGGGTKVEIK |
| 0.148 | 0.486 | 6.8 | 0.853 | 3.6 | 2.5 | H4sH15462P (antibody, V domains shown, H4sH = human IgG4 Fc with 2 or more amino acid changes as disclosed in US20140243504) VH: QVQLVQSGAEVKKPGASVKVSCKASGYTFTNYYIHWVRQAPGQGLDWMGIINPGGGNTNYAQKFLGRVTMTRDTSTTTVYMELSSLRSEDTAIYYCARENWNSYFDNWGQGTLVTVSS VL: not shown |
| 0.224 | 0.344 | 2.3 | 6.85 | 7.1 | 3.2 | H4H15462P (antibody, human IgG4, V domains shown, H4H = human IgG4 Fc with S108P hinge mutation) VH: QVQLVQSGAEVKKPGASVKVSCKASGYTFTNYYIHWVRQAPGQGLDWMGIINPGGGNTNYAQKFLGRVTMTRDTSTTTVYMELSSLRSEDTAIYYCARENWNSYFDNWGQGTLVTVSS VL: not shown |

Source: patent US20170101472A1 (Regeneron, published 2017)
